Assay [1] deals with bone marrow cells. The assay can be described thus: Transwell assay of bone marrow cell transendothelial migration towards BALF. Format: cell-based, mouse. The settings on record: BALF from doxycycline-treated CCSP-Tg/KO mice in lower chamber; 4 hours. The method, then:
Transwell assay was used to determine cell transendothelial migration. ECs were added to the upper chamber of 24-well 8.0-μm-pore Transwell plates (Corning, Corning, N.Y., USA), and incubated at 37° C., 5% CO2 for 48 hours to form an EC monolayer. The supernatant was then removed, and CELLTRACKER™ Green 5-Chloromethylfluorescein Diacetate (CMFDA) (Invitrogen, Grand Island, N.Y., USA)-labeled bone marrow cells (1×10^4 cells in 200 μL media) were added to the upper well. After 4 hours, transendothelial migration of bone marrow cells was determined by counting their numbers in the lower chamber under 5 random microscopic fields.

Assay [2] can be described thus: Tissue lipid storage in LAP-Tg/KO mice (hepatocyte-specific hLAL expression). The format is in vivo, mouse. The following applies: hepatocyte transgenic expression in lal−/− mice (doxycycline-untreated LAP-Tg/KO). The source says: LAP-tTA/(TetO)7-CMV-hLAL; lal^−/− (LAP-Tg/KO) triple mice of the FVB/N background was established by cross-breeding of LAP-tTA transgenic mice (Jackson's Laboratory, Bar Harbor, Me.) with a previously generated (tetO)7-CMV-hLAL transgenic mice into lal^−/− mice. This triple transgenic mouse model was hepatocyte-specific Tet-off expression of wild-type hLAL in lal^−/− mice under the control of the LAP. All scientific protocols that involved the use of animals were approved by the Institutional Animal Care and Use Committee of Indiana University School of Medicine and followed guidelines established by the Panel on Euthanasia of the American Veterinary Medical Association. Animals were housed in a secured animal facility at Indiana University School of Medicine.
Total tissue lipids were extracted from the liver and small intestine by the Folch method (Folch et al., J Biol. Chem 1957, […]:497-509). Concentrations of CEs and TGs were determined as described in Due et al., J Lipid Res 2001, 42:489-500 and Du et al., J Immunol 2009, 182:1648-1659).
Frozen tissue sections were prepared from the liver and intestine after a standard cryostat procedure. Tissue section slides were stained with Oil Red-O solution (0.5% in propylene glycol) in a 60° C. oven for 10 minutes and placed in 85% propylene glycol for 1 minute; slides were counter-stained in hematoxylin.

Assay [3] can be described thus: Histology and morphometry of organs in CCSP-Tg/KO mice (lung epithelial hLAL expression). Format: in vivo, mouse. The source says:
Wild-type (lal^+/+) and lal^−/− mice of the FVB/N background were bred in house. CCSP-rtTA/(TetO)7-CMV-hLAL; lal^−/− (CCSP-Tg/KO) triple mice were generated by crossbreeding previously made CCSP-rtTA transgenic mice and (TetO)7-CMV-hLAL transgenic mice into lal^−/− mice. This triple transgenic mouse model is lung AT II epithelial cells-specific Tet-on expression of wild-type human LAL (hLAL) in lal^−/− mice under the control of the CCSP promoter. All scientific protocols involving the use of animals were approved by the Institutional Animal Care and Use Committee of Indiana University School of Medicine and followed guidelines established by the Panel on Euthanasia of the American Veterinary Medical Association. Animals were housed under Institutional Animal Care and Use Committee-approved conditions in a secured animal facility at Indiana University School of Medicine.
The lungs were harvested and fixed with 4% paraformaldehyde in PBS at 4° C. overnight. After embedding in paraffin, tissue sections were cut to 5 μm thick. Hematoxylin and eosin (H&E) staining was performed by the Histological Core Facility, Department of Pathology and Laboratory Medicine, Indiana University. […] Images were analyzed by Nikon NIS Elements imaging software. […] The alveoli were assessed by area, diameter and perimeter using the integrated morphometry analysis tool. […]

Assay [4] deals with Ly6G+CD11b+ cells. The assay can be described thus: Flow cytometry of Ly6G+CD11b+ cells in CCSP-Tg/KO mice. The format is in vivo, mouse. Here is the method: For immune cell profile analysis, single cells from the lung, bone marrow, spleen and blood of lal^+/+, lal^−/− and CCSP-Tg/KO triple mice were prepared. Cells were labeled with isotype control or surface-specific primary antibodies at 4° C. for 15 minutes, and then washed and ready for flow cytometry analysis. Anti-CD11b (M1/70) PE-Cyanine7 and anti-Ly6G (RB6-8c5) APC-eFluor® 780 were purchased from eBiosciences (San Diego, Calif., USA). For characterization of tissue-specific expression of the hLAL transgene, single cells from the lungs of lal^+/+, lal^−/− and CCSP-Tg/KO triple mice were prepared and stained. Surfactant protein C (SP-C, AT II epithelial cell marker) Ab and Flag Ab were purchased from Santa Cruz Biotechnology (Dallas, Tex., USA) and Sigma-Aldrich (St. Louis, Mo., USA), respectively. In gated SP-C^+ cells, the number of the Flag^+ cells were analyzed by flow cytometry and calculated based on M1, which is defined by isotype control. Whole spleen cells were used as a control, in which the number of the Flag^+ cells was analyzed. For flow cytometry analysis, ≥30,000 cells were acquired and scored using a LSRII machine (BD Biosciences, San Jose, Calif., USA). Data were processed using the CellQuest software program (BD Biosciences).
(Flow cytometry measures light scatter and fluorescence of single cells or particles in a stream.)

Assay [5] has as its system cytokines and chemokines. The assay can be described thus: Cytokines and chemokines in BALF and plasma (ELISA) and lung (RT-PCR) of CCSP-Tg/KO mice. Format: in vivo, mouse. The method, then: BALF was collected by 1 mL PBS. The expression levels of IL-6, GM-CSF, MCP-1 and TNFα in the BALF and plasma were measured using ELISA kits (BD Biosciences, San Jose, Calif.) according to the manufacturer's instructions.
Total RNAs were purified from lungs of lal^+/+, lal^−/− and CCSP-Tg/KO triple mice using RNeasy Mini Kits according to the manufacturer's instruction (Qiagen, Valencia, Calif., USA). Quantitative (q)RT-PCR was performed as described previously (Wu et al., Blood. 2012; 119:115-26). Analysis was performed by the 2^−ΔΔCT method. Primers of mIL-6, mIL-1β, mIL-10, mGM-CSF, mM-CSF, mTNF-α, mMCP-1, mCCL5 and GAPDH were used for real-time PCR.
For orientation: An ELISA detects its analyte on a solid surface through an enzyme-linked reagent.

Setting [6] is: doxycycline-treated vs untreated CCSP-Tg/KO mice.
Where [7] appears, read: doxycycline-treated CCSP-Tg/KO mice.

Here are results for one molecule from US10857209B2, “Lysosomal acid lipase and PPAR gamma ligands as immune therapies for cancer treatment” (Indiana University Research and Technology Corporation, priority 2016, dated 2020).

B1: hLAL: human lysosomal acid lipase expressed from a doxycycline-controlled tissue-specific transgene in lal−/− mice; never administered as a protein (protein)
chain: GPKPVVFLQHGLLADSSNWVTNLANSSLGFILADAGFDVWMGNSRGNTWSRKHKTLSVSQDEFWAFSYDEMAKYDLPASINFILNKTGQEQVYYVGHSQGTTIGFIAFSQIPELAKRIKMFFALGPVASVAFCTSPMAKLGRLPDHLIKDLFGDKEFLPQSAFLKWLGTHVCTHVILKELCGNLCFLLCGFNERNLNMSRVDVYTTHSPAGTSVQNMLHWSQAVKFQKFQAFDWGSSAKNYFHYNQSYPPTYNVKDMLVPTAVWSGGHDWLADVYDVNILLTQITNLVFHESIPEWEHLDFIWGLDAPWRLYNKIINLMRKYQ
modifications: left off: small tags and cut ends
notes: human lysosomal acid lipase expressed from a doxycycline-controlled tissue-specific transgene in lal−/− mice; never administered as a protein
Consider B1, for which the “bone marrow cell transendothelial migration” value in assay [1] was “decreased bone marrow cell transendothelial migration”. Also, the “lipid storage (cholesterol and triglyceride) in liver, spleen and small intestine” value in assay [2] is recorded as “completely cleaned up”. The “liver and spleen pathology” value in assay [3] (setting [6]) was “no improvement in the liver and spleen”. Moreover, the “lung damage (emphysema, alveolar area, diameter, perimeter)” value in assay [3] (lung epithelial expression, doxycycline-treated CCSP-Tg/KO mice) was “partially restored”. The “percentage of Ly6G+CD11b+ cells in the lung” value in assay [4] (doxycycline-treated (hLAL on) vs untreated CCSP-Tg/KO mice) is on record as “significantly decreased”. In addition, in assay [4] (setting [7]), the “Ly6G+CD11b+ cell accumulation in the blood” value is “reduced”; the “Ly6G+CD11b+ cells in the spleen and bone marrow” value is recorded as “no reversing effect”. In assay [5] (setting [7]), the “lung GM-CSF mRNA level” value is given as “remained unchanged”; the “lung mRNA levels of IL-6, MCP-1, TNFα, CCL5, IL-10 and IL-1β” value is on record as “significantly down-regulated”. In addition, in assay [5] (setting [6]), the “IL-6, GM-CSF, MCP-1 and TNFα concentrations in BALF (ELISA)” value is listed as “significantly decreased”; the “IL-6, GM-CSF, MCP-1 and TNFα levels in the plasma” value was “similar”.
